Source: paper PMC8752837, “Structural basis of BAK activation in mitochondrial apoptosis initiation” (Nature Communications, 2022)

Tests used:
[1] = system: BCL2allKO HCT116 cells expressing mC-BAK and BID; test: Dox + TRAIL + CHX induced cell death by IncuCyte imaging of SYTOX Green uptake (direct activation); assay type: cell-based, human; details: TRAIL 200 ng/mL + CHX 0.5 µg/mL added at 6 h
Description: We achieved stable, constitutive expression of human BID in mC-BAK expressing BCL2allKO HCT116 by retroviral transduction based on pMX-human-BID-IRES-GFP. Amplification primers are included in Supplementary Table 4. We performed two rounds of FACS sorting gating on GFP-positive cells to enrich for populations of cells that express BID.
For coexpression of mC-BAK + BID, we treated cells with different doses of Dox for 24 h to induce expression of mC-BAK. At 6 h, we treated cells with TRAIL (200 ng/mL) + cycloheximide (CHX, 0.5 µg/mL) to promote BID activation under conditions of protein synthesis inhibition by CHX, and continued to record Incucyte imaging of SYTOX Green uptake up to 48 h. We blocked caspase activity with qVD (40 µM).

[2] = Liposome permeabilization by WT and mutant BAK proteins (autoactivation, or direct activation by BID BH3); assay type: biochemical; details: absence of BID BH3
Description: Human BAK-∆TM-His6 (BAK)[26] spontaneously permeabilizes liposomes above a certain dose (>100 nM, Fig. 1a). In these dye-release assays[43]–[46], BAK is recruited via His-tag to liposomes containing 2.5 µM of the lipid 1,2-dioleoyl-sn-glycero-3-[(N-(5-amino-1-carboxypentyl)iminodiacetic acid)succinyl] (nickel salt), DGS-NTA(Ni).
To probe autoactivation with full-length BAK, we mutated hydrophobic residues at positions (0)−(6) of the BH3 to alanine or arginine, and D83, which forms the conserved salt bridge (s) with R127, to alanine (Fig. 2a). The BH3 residues participate in autoactivation from the ligand side [hydrophobic positions (0)–(5) and D83(s)] and also from the receptor groove side [hydrophobic positions (3)–(5)] (Fig. 2a). Thus, substitutions at positions (3)–(5) should affect receptor and ligand activities and are predicted to impact BAK activation more severely than mutations of positions (0)–(2), which affect only ligand activity. […] In contrast, almost all (2)–(5) and (s) missense mutants were considerably impaired in autoactivation (Fig. 2b and Supplementary Fig. 3a). […] Despite impairment in autoactivation, all missense mutants were directly activated by BID BH3 peptide, although they induced lower level of permeabilization compared to WT BAK (Fig. 2b and Supplementary Fig. 3a).
We performed liposome permeabilization assays as previously described[43]–[46]. […] (nickel salt) [DGS NTA(Ni), 2.5 μM final concentration in each assay] (Avanti Polar Lipids). We prepared 12.5 mM fluorophore; 8-aminonaphthalene-1, 3, 6-trisulfonic acid, disodium salt (ANTS) and 45 mM quencher; p-xylene-bis-pyridiniumbromide (DPX) in LUV buffer (10 mM HEPES pH 6.8, 200 mM KCl and 5 mM MgCl2). We mixed the lipid film in ANTS/DPX solution by vortexing and sonication (~15 min) followed by extrusion through polycarbonate membrane of 2 μm pore size (Avanti Polar lipids) to generate homogenous large unilamellar vesicles (LUVs). We separated LUVs from free ANTS/DPX by S500 size exclusion chromatography and stored them at 4 °C in the dark. We prepared peptide and protein dilutions in 96-well black flat bottom plates (Costar) kept on ice. ANTS release from permeabilized liposomes causes an increase in fluorescence, which we monitored at 37 °C for 90 min using a CLARIOSTAR microplate reader (BMG Labtech) set at excitation and emission wavelengths of 360 and 530 nm, respectively. We normalized the data relative to maximum and minimum fluorescence induced by 3% CHAPS and buffer controls, respectively. We quantified liposome permabilization by integrating area under curve (AUC) of normalized traces based on the Simpson’s equation, and analyzed that data in Excel and GraphPad Prism. AUC measurements reflect the kinetic and extent of liposome permeabilization and provide quantitative means for comparison between different experimental conditions (e.g., BAK mutants with gross or partial variation in activity). Variability in permeabilization of different liposomes is common and our analyses compare among conditions investigated with the same liposomes. Although the absolute permeabilization values may differ, the trends for the same conditions are always very similar between different liposomes.

B1: V74A (1): BAK missense mutant, WT-like; in cells as mCherry fusion (protein)
chain: MASGQGPGPPRQECGEPALPSASEEQVAQDTEEVFRSYVFYRHQQEQEAEGVAAPADPEMVTLPLQPSSTMGQAGRQLAIIGDDINRRYDSEFQTMLQHLQPTAENAYEYFTKIATSLFESGINWGRVVALLGFGYRLALHVYQHGLTGFLGQVTRFVVDFMLHHCIARWIAQRGGWVAALNLGNG
modifications: left off: His6, C-terminal, kept
notes: BAK missense mutant, WT-like; in cells as mCherry fusion
With B1 the “cell death with Dox + TRAIL + CHX compared to Dox alone” value [1] was “boosted the levels of cell death” and the “autoactivation in liposome permeabilization assays” value [2] was “behave similar to WT BAK”.
